The target of experiment [1] is human PD-L1 (human) (UniProt Q9NZQ7).
Target sequence in this assay (Q9NZQ7 19-290 limits assumed): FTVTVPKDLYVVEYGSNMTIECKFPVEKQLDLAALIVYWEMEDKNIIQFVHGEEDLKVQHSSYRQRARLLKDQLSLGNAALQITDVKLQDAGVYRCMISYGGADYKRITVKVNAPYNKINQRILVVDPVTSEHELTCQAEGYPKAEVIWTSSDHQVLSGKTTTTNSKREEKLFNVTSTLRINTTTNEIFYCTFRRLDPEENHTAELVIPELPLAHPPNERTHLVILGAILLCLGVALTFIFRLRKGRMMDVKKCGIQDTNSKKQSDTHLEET
Experiment [2] addresses CD28 (human) (UniProt P10747).
The target in experiment [3] is human PD-L1 (human) (UniProt Q9NZQ7). In words: flow cytometry, CHO cells expressing huPD-L1. Background: A flow cytometer gives signals particle by particle.
Target sequence in this assay (Q9NZQ7 19-290): as the sequence (Q9NZQ7 19-290 limits assumed) above
In experiment [4] the target is human CTLA-4 (human) (UniProt P16410). Kind of experiment: flow cytometry, CHO/huCTLA-4 cells; vs WT CD80 ECD-Fc (Abcam).
Experiment [5] addresses CD28 (human) (UniProt P10747). In words: flow cytometry, Jurkat/IL2 reporter cells (CD28).
Experiment [6] concerns the target human PD-L1 (human) (UniProt Q9NZQ7). In words: flow cytometry, CHO/huPD-L1 cells; vs WT CD80 ECD-Fc (Abcam).
Target sequence in this assay (Q9NZQ7 19-290): as the sequence (Q9NZQ7 19-290 limits assumed) above
For experiment [7], the target named is human PD-L1 (huPD-L1), on stably transduced CHO cells (human) (UniProt Q9NZQ7). Kind of experiment: flow cytometry on CHO/huPD-L1 cells; MFI relative to WT CD80 (CD80 WT IgV-Fc = 1.0).
The target of experiment [8] is human PD-L1 (human) (UniProt Q9NZQ7). In words: flow cytometry; PD-L1 MFI over CD28 MFI of the same protein.
Target sequence in this assay (Q9NZQ7 19-290): as the sequence (Q9NZQ7 19-290 limits assumed) above
Experiment [9] concerns the target human CTLA-4 (huCTLA4), on stably transduced CHO cells (human) (UniProt P16410). Kind of experiment: flow cytometry on CHO/huCTLA4 cells; MFI relative to WT CD80 (CD80 WT IgV-Fc = 1.0).
Experiment [10] has as its target human CTLA-4 (human) (UniProt P16410). Kind of experiment: flow cytometry, CHO cells expressing huCTLA-4.
Experiment [11] deals with CD28 (human) (UniProt P10747). Kind of experiment: flow cytometry, Jurkat cells (CD28); vs WT CD80 ECD-Fc (Abcam).
For experiment [12], the target named is human PD-L1 (huPD-L1), on stably transduced CHO cells (human) (UniProt Q9NZQ7). Kind of experiment: flow cytometry on CHO cells stably expressing huPD-L1, 33.3 nM Fc fusion, PE anti-human Fc.
Experiment [13] has as its target CD28, endogenously expressed on Jurkat/IL2 reporter cells (human) (UniProt P10747). Kind of experiment: flow cytometry on Jurkat (CD28) cells; MFI relative to WT CD80 (CD80 WT IgV-Fc = 1.0).
The target of experiment [14] is human CTLA-4 (huCTLA4), on stably transduced CHO cells (human) (UniProt P16410). In words: flow cytometry on CHO cells stably expressing huCTLA4, 33.3 nM Fc fusion, PE anti-human Fc.
The target of experiment [15] is CD28, endogenously expressed on Jurkat/IL2 reporter cells (human) (UniProt P10747). Kind of experiment: flow cytometry on Jurkat/IL2 reporter cells (endogenous CD28), 33.3 nM Fc fusion, PE anti-human Fc.
Experiment [16] concerns the target human PD-L1 (huPD-L1), on stably transduced CHO cells (human) (UniProt Q9NZQ7). Kind of experiment: flow cytometry; ratio of MFI on CHO/huPD-L1 cells to MFI on Jurkat (CD28) cells.

human CTLA-4 (human), sequence (P16410 36-223): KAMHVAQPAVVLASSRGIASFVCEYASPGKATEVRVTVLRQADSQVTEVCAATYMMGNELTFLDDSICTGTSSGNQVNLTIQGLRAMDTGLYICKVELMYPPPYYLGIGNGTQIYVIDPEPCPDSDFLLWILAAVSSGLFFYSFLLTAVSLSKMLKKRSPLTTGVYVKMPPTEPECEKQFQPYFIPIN
human CTLA-4 (huCTLA4), on stably transduced CHO cells (human), sequence (P16410 36-223): as above
human PD-L1 (huPD-L1), on stably transduced CHO cells (human), sequence (Q9NZQ7 19-290): as the sequence (Q9NZQ7 19-290 limits assumed) above

B1: variant CD80 IgV-Fc E35D/M47V (Fc fusion)
chain: VIHVTKEVKEVATLSCGHNVSVEELAQTRIYWQKDKKMVLTMMSGDVNIWPEYKNRTIFDITNNLSIVILALRPSDEGTYECVVLKYEKDAFKREHLAEVTLSVKAD
For the molecule B1, the IL-2 luciferase reporter, fold increase over WT CD80-IgV-Fc at 5.0 nM with human PD-L1 (human) [1] and with CD28 (human) [2] was 4.7 fold throughout. In addition, the MFI at 33.3 nM with human PD-L1 (human) [3] was 6800 MFI; in the experiment with CD28 (human) [5], 501 MFI; with human CTLA-4 (human) [10], 44600 MFI; in [12], 2940 MFI; in [14] it was 20900 MFI; in [15], 461 MFI. In addition, the Fold change to WT CD80 with human CTLA-4 (human) [4] was determined as 1.1 fold; with human PD-L1 (human) [6] it was 53.1 fold; in experiment [7], 41.7 fold; in experiment [9], 10.9 fold; with CD28 (human) [11], 0.7 fold; in [13], 7 fold. Further, the Ratio of PDL1:CD28 with human PD-L1 (human) [8] is 13.6; in experiment [16], 6.

B2: variant CD80 IgV-Fc Q27L/E35D/M47V/I61V/L85M (Fc fusion)
chain: VIHVTKEVKEVATLSCGHNVSVEELALTRIYWQKDKKMVLTMMSGDVNIWPEYKNRTIFDVTNNLSIVILALRPSDEGTYECVVMKYEKDAFKREHLAEVTLSVKAD
Regarding B2, the Fold change to WT CD80 was found to be 38.5 fold in experiment [7], 14.6 fold in experiment [9] and 3.5 fold in experiment [13]. The MFI at 33.3 nM came to 2700 MFI in [12], 27900 MFI in experiment [14] and 230 MFI in experiment [15]. Further, in experiment [16], the Ratio of PDL1:CD28 turned out to be 12.

B3: variant CD80 IgV-Fc M47V (Fc fusion)
chain: VIHVTKEVKEVATLSCGHNVSVEELAQTRIYWQKEKKMVLTMMSGDVNIWPEYKNRTIFDITNNLSIVILALRPSDEGTYECVVLKYEKDAFKREHLAEVTLSVKAD
With B3, the IL-2 luciferase reporter, fold increase over WT CD80-IgV-Fc at 5.0 nM with human PD-L1 (human) [1] and in the experiment with CD28 (human) [2] was 3.9 fold throughout. Moreover, the figures for the MFI at 33.3 nM with human PD-L1 (human) [3], with CD28 (human) [5] and with human CTLA-4 (human) [10] were 2320 MFI, 68.7 MFI and 33300 MFI, respectively. Besides, the Fold change to WT CD80 with human CTLA-4 (human) [4] came to 0.8 fold; with human PD-L1 (human) [6] it was 18.1 fold; in the experiment with CD28 (human) [11], 0.1 fold. Further, in the experiment with human PD-L1 (human) [8], the Ratio of PDL1:CD28 is 33.7.

B4: variant CD80 IgV-Fc E35D/M47V/N48K/V68M/L85Q (Fc fusion)
chain: VIHVTKEVKEVATLSCGHNVSVEELAQTRIYWQKDKKMVLTMMSGDVKIWPEYKNRTIFDITNNLSIMILALRPSDEGTYECVVQKYEKDAFKREHLAEVTLSVKAD
As to B4, the IL-2 luciferase reporter, fold increase over WT CD80-IgV-Fc at 5.0 nM with human PD-L1 (human) [1] and with CD28 (human) [2] was 7.9 fold each time. In addition, the MFI at 33.3 nM in the experiment with human PD-L1 (human) [3] stood at 10500 MFI; in the experiment with CD28 (human) [5] it was 118 MFI; with human CTLA-4 (human) [10], 26100 MFI. The Fold change to WT CD80 was 0.6 fold with human CTLA-4 (human) [4], 81.9 fold with human PD-L1 (human) [6] and 0.2 fold with CD28 (human) [11]. Further, the Ratio of PDL1:CD28 with human PD-L1 (human) [8] came to 88.8.

B5: variant CD80 IgV-Fc E35D/M47V/V68M/L85Q/K89N (Fc fusion)
chain: VIHVTKEVKEVATLSCGHNVSVEELAQTRIYWQKDKKMVLTMMSGDVNIWPEYKNRTIFDITNNLSIMILALRPSDEGTYECVVQKYENDAFKREHLAEVTLSVKAD
B5: the IL-2 luciferase reporter, fold increase over WT CD80-IgV-Fc at 5.0 nM in the experiment with human PD-L1 (human) [1] and in the experiment with CD28 (human) [2] was 7.4 fold throughout. The MFI at 33.3 nM amounted to 12100 MFI with human PD-L1 (human) [3], 246 MFI in the experiment with CD28 (human) [5] and 30300 MFI with human CTLA-4 (human) [10]. The Fold change to WT CD80 with human CTLA-4 (human) [4] was determined as 0.7 fold; with human PD-L1 (human) [6], 94.4 fold; with CD28 (human) [11], 0.3 fold. Besides, the Ratio of PDL1:CD28 with human PD-L1 (human) [8] turned out to be 49.1.

B6: variant CD80 IgV-Fc E35D/D46V/M47V/N48K/V68M (Fc fusion)
chain: VIHVTKEVKEVATLSCGHNVSVEELAQTRIYWQKDKKMVLTMMSGVVKIWPEYKNRTIFDITNNLSIMILALRPSDEGTYECVVLKYEKDAFKREHLAEVTLSVKAD
For B6, the IL-2 luciferase reporter, fold increase over WT CD80-IgV-Fc at 5.0 nM with human PD-L1 (human) [1] and with CD28 (human) [2] was 6.1 fold in each case. The MFI at 33.3 nM is 25900 MFI in the experiment with human PD-L1 (human) [3], 1080 MFI with CD28 (human) [5] and 23900 MFI with human CTLA-4 (human) [10]. The Fold change to WT CD80 in the experiment with human CTLA-4 (human) [4] worked out at 0.6 fold; with human PD-L1 (human) [6], 203 fold; with CD28 (human) [11], 1.5 fold. The Ratio of PDL1:CD28 with human PD-L1 (human) [8] amounted to 23.9.

B7: variant CD80 IgV-Fc E35D/M47V/K89N (Fc fusion)
chain: VIHVTKEVKEVATLSCGHNVSVEELAQTRIYWQKDKKMVLTMMSGDVNIWPEYKNRTIFDITNNLSIVILALRPSDEGTYECVVLKYENDAFKREHLAEVTLSVKAD
For B7, the IL-2 luciferase reporter, fold increase over WT CD80-IgV-Fc at 5.0 nM with human PD-L1 (human) [1] and with CD28 (human) [2] was 5.8 fold each time. The MFI at 33.3 nM with human PD-L1 (human) [3] was determined as 4340 MFI; with CD28 (human) [5] it was 507 MFI; with human CTLA-4 (human) [10], 39300 MFI. Further, the Fold change to WT CD80 with human CTLA-4 (human) [4] came to 1 fold; in the experiment with human PD-L1 (human) [6], 33.9 fold; in the experiment with CD28 (human) [11], 0.7 fold. Further, in the experiment with human PD-L1 (human) [8], the Ratio of PDL1:CD28 was 8.6.

B8: variant CD80 IgV-Fc M47V/N48K/V68M (Fc fusion)
chain: VIHVTKEVKEVATLSCGHNVSVEELAQTRIYWQKEKKMVLTMMSGDVKIWPEYKNRTIFDITNNLSIMILALRPSDEGTYECVVLKYEKDAFKREHLAEVTLSVKAD
As to B8, the IL-2 luciferase reporter, fold increase over WT CD80-IgV-Fc at 5.0 nM with human PD-L1 (human) [1] and in the experiment with CD28 (human) [2] was 5.8 fold throughout. Further, the MFI at 33.3 nM in the experiment with human PD-L1 (human) [3] stood at 14500 MFI; with CD28 (human) [5], 641 MFI; with human CTLA-4 (human) [10], 34600 MFI. Moreover, the Fold change to WT CD80 with human CTLA-4 (human) [4] was determined as 0.9 fold; in the experiment with human PD-L1 (human) [6], 113 fold; with CD28 (human) [11] it was 0.9 fold. The Ratio of PDL1:CD28 with human PD-L1 (human) [8] was 22.6.

B9: variant CD80 IgV-Fc E35D/D46V/M47V/V68M/L85Q (Fc fusion)
chain: VIHVTKEVKEVATLSCGHNVSVEELAQTRIYWQKDKKMVLTMMSGVVNIWPEYKNRTIFDITNNLSIMILALRPSDEGTYECVVQKYEKDAFKREHLAEVTLSVKAD
In the case of B9, the IL-2 luciferase reporter, fold increase over WT CD80-IgV-Fc at 5.0 nM with human PD-L1 (human) [1] and with CD28 (human) [2] was 8.5 fold each time. Further, the values for the MFI at 33.3 nM with human PD-L1 (human) [3], in the experiment with CD28 (human) [5] and with human CTLA-4 (human) [10] were 26300 MFI, 331 MFI and 36500 MFI, respectively. Also, the Fold change to WT CD80 was 0.9 fold with human CTLA-4 (human) [4], 205 fold with human PD-L1 (human) [6] and 0.5 fold in the experiment with CD28 (human) [11]. Further, the Ratio of PDL1:CD28 in the experiment with human PD-L1 (human) [8] was 79.4.

B10: variant CD80 IgV-Fc M47V/V68M (Fc fusion)
chain: VIHVTKEVKEVATLSCGHNVSVEELAQTRIYWQKEKKMVLTMMSGDVNIWPEYKNRTIFDITNNLSIMILALRPSDEGTYECVVLKYEKDAFKREHLAEVTLSVKAD
With B10, the IL-2 luciferase reporter, fold increase over WT CD80-IgV-Fc at 5.0 nM with human PD-L1 (human) [1] and with CD28 (human) [2] was 4.8 fold each time. The MFI at 33.3 nM with human PD-L1 (human) [3] amounted to 4290 MFI; in the experiment with CD28 (human) [5], 328 MFI; with human CTLA-4 (human) [10] it was 7280 MFI. For the same molecule, the Fold change to WT CD80 in the experiment with human CTLA-4 (human) [4] amounted to 0.2 fold; with human PD-L1 (human) [6], 33.5 fold; in the experiment with CD28 (human) [11] it was 0.5 fold. In the experiment with human PD-L1 (human) [8], the Ratio of PDL1:CD28 amounted to 13.1.

B11: variant CD80 IgV-Fc E35D/K89N (Fc fusion)
chain: VIHVTKEVKEVATLSCGHNVSVEELAQTRIYWQKDKKMVLTMMSGDMNIWPEYKNRTIFDITNNLSIVILALRPSDEGTYECVVLKYENDAFKREHLAEVTLSVKAD
As to B11, the IL-2 luciferase reporter, fold increase over WT CD80-IgV-Fc at 5.0 nM with human PD-L1 (human) [1] and with CD28 (human) [2] was 2.5 fold each time. Also, the figures for the MFI at 33.3 nM with human PD-L1 (human) [3], with CD28 (human) [5] and in the experiment with human CTLA-4 (human) [10] were 757 MFI, 236 MFI and 21800 MFI, respectively. Moreover, the Fold change to WT CD80 in the experiment with human CTLA-4 (human) [4] turned out to be 0.5 fold; in the experiment with human PD-L1 (human) [6], 5.9 fold; with CD28 (human) [11], 0.3 fold. Moreover, in the experiment with human PD-L1 (human) [8], the Ratio of PDL1:CD28 was found to be 3.2.

For the origin of these results see US20220177587A1, “METHODS AND USES OF VARIANT CD80 FUSION PROTEINS AND RELATED CONSTRUCTS” (Alpine Immune Sciences, Inc., priority 2018, published 2022).
